Data: the supplement of paper PMC12764529
± gives the half width of the 95% confidence interval.

test: folding stability dG unfold (combined trypsin and chymotrypsin); higher = more stable
Summary of the method: (§1)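 How resistant each design was to proteolysis was captured as K50, inferred by Bayesian fitting of sequencing counts. Unfolding free energy was then derived relative to a sequence-predicted unfolded-state K50 and a shared folded-state K50, per protease or combined. Digestion used trypsin and chymotrypsin at 11 threefold-diluted concentrations plus a no-protease condition, on mini-proteins under 80 residues without cysteine in a PA-tagged cDNA display construct. Designs were kept only when AlphaFold2 dimer inter-PAE was above 15.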

Sequence	folding stability dG unfold [kcal/mol]
SAGGSAGGSAPNLKLKIKLDIHVFPDGWLYVSTKIEIENPGKPVEFTIMFRFPIPPNEPAPSAGGSAGGSAG [r3_383_TrROS]	5.16 ± 0.27
SAGGSAGGSEKVTIRFPAKELRERFPNATPEQIADRIAKKFPNIKRIEVEQEPGYYRITVQVESAGGSAGGS [r12_590_TrROS]	2.15 ± 0.12
SAGGSAGGSDPVPIVITYPDGSTSTTLEPDKIYITYPSKGLKYVVPIDLSTNKISFSLESSLPSAGGSAGGS [r12_539_JUSTAS]	-0.254 ± 0.08
SAGGSMEVEEFETTDPATGKPYRLRFTYDSETGIPVLEVFAPDGTPLATVPVEPGEAEAARERLGASAGGSA [r2_115_JUSTAS]	0.767 ± 0.058
SAGGSAGGSAGGMTVTLKAPDGKWLTVPVDPEDPKAVKEAVEELAAKGHPVVEVSTDEKSAGGSAGGSAGGS [r10_231_JUSTAS]	0.355 ± 0.059
GYRPALAVVELGPNSRLLLRPPEGPSVEIEVESPEEALAAALKLLPKDQPLVLEVFDEGKLIETIPIEIPPS [r1_276_TrMRF]	1.55 ± 0.095
SAGGSAGGSSTLTLTVRVEVTVEVDGKTYTFTAELTLTVELPPLPEEDLKLYRTDDGELRLVRSAGGSAGGS [r12_1031_TrROS_Hall]	2.88 ± 0.47
SMRIVTEDGQELTIVLPKVPPNMTPEQLRKALEEAGVEVEEITFDEETGEVTVKIRFKDAEKAEEALKKASA [r9_1154_TrROS_Hall]	1.21 ± 0.14
SAGGSKPVYKVKIEIEFNGKKIEIEIEAETEEEAKKAVEELLKKLFEENKDNLKIKVEVEKLPEKPSAGGSA [r2_111_TrROS_Hall]	3.11 ± 0.12
PSVVYLVLRRPEGGPVRSFRFPVPDRGEPGFEEVLDLIERVTGVSRGALRKNVRIVPVPETGDVLVVADLSS [r1_285_TrMRF]	1.88 ± 0.065
SAGGSAGGSAKVILLPSPDDSVVLITVHPDDTVEVTVLRLNPEDPTYEPVTVTVPLSYPELFSAGGSAGGSA [r18_503_TrMRF]	0.843 ± 0.18
SAMKEGQRLLVVKITIYNKNGEKVEELELVVPEEDKEKALEAAKKLAEELAKKLNLEIKIEVEEVPLPPSAG [r14_146_TrROS_Hall]	3.86 ± 0.13
SSSVTRTYTVTLPGSTVSIEITEKPNPEGSTTVTITVTTTKPGGGSTTTTVTKNITGLTLEDILKEAISSSA [r9_217_JUSTAS]	3.57 ± 0.057
SSIEEQIREIFEPKGMEITDVKTEKKPDGTTVAKFTYTDPVKDEKGNPISTLTKEGTVVFKNGKIVEVEESA [r9_519_JUSTAS]	2.61 ± 0.049
SAGGSAGGSAGGSKKTITVTVLFKDKNGKPVYIAKAKVTLNENGEETIEITEIYPLEDLSAGGSAGGSAGGS [r4_117_TrROS_Hall]	2.34 ± 0.27
SADKVMIMFRSPQTFRRILREALKTDKPVYLMFPPKWMDELKELGFPNVKIEPQKNPNGGPYYMFELPVSAG [r14_127_TrROS]	1.79 ± 0.18
SSLTVRLELEVTFEDGLRVRVEVEAELREVDGKLELRVRVRVEVRPLPPPPPPPPPPRLSDEQLEELRKRSA [r9_965_TrROS_Hall]	1.9 ± 0.19
SAGGSAGGSAGYLYFISIEFNLQWNGDGNLQLQPKIEIQRIEIPPPPPKWKYDGNKPKYDSAGGSAGGSAGG [r17_418_TrROS]	3.04 ± 0.17
SAGGSAGGSASPAPDTLYVPVVFDVVFPLPDGSYVLVPVLAYYQLPGGTLLASVRFAVTFDSAGGSAGGSAG [r3_484_TrMRF]	3.86 ± 0.2
SKKMTAEELLKKFPNVVFIRLKNGKIIAFNKETKEIYIFNLKTGKVEKIKVTPEELEKLAKENNFEIYPVSA [r9_721_TrROS_Hall]	3.12 ± 0.12
SAGGKVAAPAQPLASTKVERTTLPTGTTVTYVTVTSSAVPTPTTYTFSPGENPGDFAAATGLPVTLVSAGGS [r16_676_JUSTAS]	0.126 ± 0.092

test: folding stability dG unfold from trypsin proteolysis; higher = more stable
Summary of the method: as §1

Sequence	folding stability dG unfold [kcal/mol]
SAMKTETITVPGLKIEVTENKDGKKTIKITAATPEQAEEWLKKNPELRKLIEELEKAGYKVEITVLPPPSAG [r14_873_TrROS_Hall]	3.4 ± 0.17
SSEKVELAKKYLKEKGIPIKEFKEITPTGITILAPNGKWITISVKPGDLNEITINPKKSSDGGYENDIPYSA [r9_809_JUSTAS]	0.215 ± 0.049
SAGGMKYVLKIEITFKKPSGPPEKKIILVEFDPDFPDIPLEEAAERVLNEIAPKYGDEAKVSEISPVSAGGS [r8_101_TrMRF]	1.3 ± 0.054
SAGGSAGGSPPPDVPVDVGERVEYHPPGGVVVREYRTPEGRLIRVEIEELEGGELVRRVVLPLSAGGSAGGS [r12_264_JUSTAS]	1.14 ± 0.095
SKAEILEAPAVFNPESESATLYYLVKVTFPDPSVKLIPGVFPADYTPEQAAEEILARFKSLGLESATITPSA [r9_1203_TrMRF]	1.5 ± 0.15
SAGGSAKTITIEVKVEKTKDGKIKKGEIVKVEIEVDEKTKKVKIKIYNKNGELIAEIEIELSPEDLSAGGSA [r15_134_TrROS_Hall]	1.34 ± 0.21
SAGGSAGGSAGGSVPSDVTVSILEIEPKEDKYLVLLRVPENGTLIEREFESLEEAKELLSAGGSAGGSAGGS [r10_1038_JUSTAS]	1.16 ± 0.033
SAGGKKVEILEVSVKPVTLGGKKKYYLNVKVKTPDGKVVNVTMPLEVVKSLGFSIEEFAKAVAKTLLSAGGS [r16_625_TrMRF]	2.96 ± 0.071
SAGGSAGGSAGGMKIVFLGKKALIENENGEVTEIPVGSLEEFEKLAEAFPDYEAVPAVPSAGGSAGGSAGGS [r10_1211_TrMRF]	0.888 ± 0.025
SAGGSAGGSAGGMKILSVEEDAPPDYVTVTELTVDSEGNKKIITTTIPIEPPPEVSPSLISAGGSAGGSAGG [r7_873_JUSTAS]	1.15 ± 0.039
